# The supplement of paper PMC10567573
# B1: MLH1 (parent)
# chain: YNIATRRKALKNPSEEYGKILEVV
# B2: NP_015628.1 (parent)
# chain: EQRNSRWNTVLRAVKAKTHHLEP
# Variants of: B1
# Assay: protein stability index of a GFP-peptide fusion (GPS, HEK-293T) (PSI 1-6); higher = more stable
# Details: c terminus: a fixed tail appended
row,Variant,protein stability index
1,YNIATRRKALKNPSEEYGKILEVK,3.77
2,YNIATRRKALKNPSEEYGKILEVA,3.79
3,YNIATRRKALKNPSEEYGKILEVD,3.66
4,YNIATRRKALKNPSEEYGKILEVL,2.45
5,YNIATRRKALKNPSEEYGKILEVC,3.37
6,YNIATRRKALKNPSEEYGKILEVQ,3.52
7,YNIATRRKALKNPSEEYGKILEVE,3.98
8,YNIATRRKALKNPSEEYGKILEVG,3.32
9,YNIATRRKALKNPSEEYGKILEVH,3.11
10,YNIATRRKALKNPSEEYGKILEVW,1.96
11,YNIATRRKALKNPSEEYGKILEVP,4.07
12,YNIATRRKALKNPSEEYGKILEVF,2.98
13,YNIATRRKALKNPSEEYGKILEVN,3.64
14,YNIATRRKALKNPSEEYGKILEYV,2.5
15,YNIATRRKALKNPSEEYGKILETV,2.97
16,YNIATRRKALKNPSEEYGKILESV,3.66

# Variants of: B2
# Assay: as above
# Details: c terminus: native
row,Variant,protein stability index
1,ENRNSRWNTVLRAVKAKTHHLEP,2.88
2,EMRNSRWNTVLRAVKAKTHHLEP,3.12
3,ETRNSRWNTVLRAVKAKTHHLEP,2.38
4,ELRNSRWNTVLRAVKAKTHHLEP,2.84
5,ECRNSRWNTVLRAVKAKTHHLEP,2.93
6,EFRNSRWNTVLRAVKAKTHHLEP,3.02
7,EERNSRWNTVLRAVKAKTHHLEP,3.55
8,EIRNSRWNTVLRAVKAKTHHLEP,3.24
9,EVRNSRWNTVLRAVKAKTHHLEP,2.76
10,ESRNSRWNTVLRAVKAKTHHLEP,2.87
11,EGRNSRWNTVLRAVKAKTHHLEP,2.74
12,EARNSRWNTVLRAVKAKTHHLEP,2.98
13,EDRNSRWNTVLRAVKAKTHHLEP,3.43
14,EKRNSRWNTVLRAVKAKTHHLEP,2.71
15,EYRNSRWNTVLRAVKAKTHHLEP,2.97
16,ERRNSRWNTVLRAVKAKTHHLEP,2.9
17,EPRNSRWNTVLRAVKAKTHHLEP,3.06
18,EWRNSRWNTVLRAVKAKTHHLEP,2.78
19,EHRNSRWNTVLRAVKAKTHHLEP,3.12
20,EQRNSRHNTVLRAVKAKTHHLEP,5.21
21,EQRNSRGNTVLRAVKAKTHHLEP,5.71
22,EQRNSRDNTVLRAVKAKTHHLEP,5.12
23,EQRNSRFNTVLRAVKAKTHHLEP,4.71
24,EQRNSRCNTVLRAVKAKTHHLEP,5.2
25,EQRNSRVNTVLRAVKAKTHHLEP,4.88
26,EQRNSRTNTVLRAVKAKTHHLEP,5.14

row,Variant,protein stability index
1,EQRNSRLNTVLRAVKAKTHHLEP,4.66
2,EQRNSRRNTVLRAVKAKTHHLEP,5.19
3,EQRNSRMNTVLRAVKAKTHHLEP,5.33
4,EQRNSRNNTVLRAVKAKTHHLEP,4.83
5,EQRNSRANTVLRAVKAKTHHLEP,5.18
6,EQRNSRSNTVLRAVKAKTHHLEP,5.32
7,EQRNSRKNTVLRAVKAKTHHLEP,5.46
8,EQRNGRWNTVLRAVKAKTHHLEP,3.32
9,EQRNHRWNTVLRAVKAKTHHLEP,2.62
10,EQRNYRWNTVLRAVKAKTHHLEP,2.38
11,EQRNDRWNTVLRAVKAKTHHLEP,2.96
12,EQRNTRWNTVLRAVKAKTHHLEP,2.93
13,EQRNKRWNTVLRAVKAKTHHLEP,2.28
14,EQRNARWNTVLRAVKAKTHHLEP,2.67
15,EQRNLRWNTVLRAVKAKTHHLEP,2.48
16,EQRNCRWNTVLRAVKAKTHHLEP,2.46
17,EQRNWRWNTVLRAVKAKTHHLEP,2.46
18,EQRNFRWNTVLRAVKAKTHHLEP,2.61
19,EQRNERWNTVLRAVKAKTHHLEP,2.91
20,EQRNRRWNTVLRAVKAKTHHLEP,2.42
21,EQRNVRWNTVLRAVKAKTHHLEP,2.43
22,EQRNPRWNTVLRAVKAKTHHLEP,2.78
23,EQRNQRWNTVLRAVKAKTHHLEP,2.67
24,EQRNMRWNTVLRAVKAKTHHLEP,2.4
25,EQRNSRWNTTLRAVKAKTHHLEP,3.15
26,EQRNSRWNTYLRAVKAKTHHLEP,2.53

row,Variant,protein stability index
1,EQRNSRWNTKLRAVKAKTHHLEP,3.15
2,EQRNSRWNTDLRAVKAKTHHLEP,4.65
3,EQRNSRWNTILRAVKAKTHHLEP,2.92
4,EQRNSRWNTNLRAVKAKTHHLEP,3.76
5,EQRNSRWNTALRAVKAKTHHLEP,3.52
6,EQRNSRWNTFLRAVKAKTHHLEP,2.74
7,EQRNSRWNTWLRAVKAKTHHLEP,2.78
8,EQRNSRWNTRLRAVKAKTHHLEP,2.77
9,EQRNSRWNTQLRAVKAKTHHLEP,3.25
10,EQRNSRWNTPLRAVKAKTHHLEP,4.13
11,EQRNSRWNTHLRAVKAKTHHLEP,2.81
12,EQRNSRWNTSLRAVKAKTHHLEP,3.63
13,EQRNSRWNTCLRAVKAKTHHLEP,3.99
14,EQRNSRWNTELRAVKAKTHHLEP,3.92
15,EQRNSRWNTMLRAVKAKTHHLEP,2.89
16,EQRNSRWTTVLRAVKAKTHHLEP,2.16
17,EQRNSRWCTVLRAVKAKTHHLEP,2.01
18,EQRNSRWHTVLRAVKAKTHHLEP,2.64
19,EQRNSRWVTVLRAVKAKTHHLEP,3
20,EQRNSRWQTVLRAVKAKTHHLEP,2.06
21,EQRNSRWRTVLRAVKAKTHHLEP,2.53
22,EQRNSRWYTVLRAVKAKTHHLEP,2.61
23,EQRNSRWSTVLRAVKAKTHHLEP,2.28
24,EQRNSRWWTVLRAVKAKTHHLEP,2.78
25,EQRNSRWITVLRAVKAKTHHLEP,2.6
26,EQRNSRWGTVLRAVKAKTHHLEP,2.49

row,Variant,protein stability index
1,EQRNSRWETVLRAVKAKTHHLEP,1.92
2,EQRNSRWLTVLRAVKAKTHHLEP,2.29
3,EQRNSRWATVLRAVKAKTHHLEP,1.94
4,EQRNSRWDTVLRAVKAKTHHLEP,2.52
5,EQRNSRWMTVLRAVKAKTHHLEP,2.15
6,EQRNSRWFTVLRAVKAKTHHLEP,2.8
7,EQRNSRWPTVLRAVKAKTHHLEP,3.65
8,EQRLSRWNTVLRAVKAKTHHLEP,2.87
9,EQRDSRWNTVLRAVKAKTHHLEP,3.22
10,EQRRSRWNTVLRAVKAKTHHLEP,2.96
11,EQRPSRWNTVLRAVKAKTHHLEP,2.67
12,EQRYSRWNTVLRAVKAKTHHLEP,3.16
13,EQRHSRWNTVLRAVKAKTHHLEP,2.48
14,EQRESRWNTVLRAVKAKTHHLEP,3.37
15,EQRCSRWNTVLRAVKAKTHHLEP,2.73
16,EQRGSRWNTVLRAVKAKTHHLEP,3.71
17,EQRQSRWNTVLRAVKAKTHHLEP,3.1
18,EQRKSRWNTVLRAVKAKTHHLEP,2.67
19,EQRVSRWNTVLRAVKAKTHHLEP,2.96
20,EQRWSRWNTVLRAVKAKTHHLEP,2.4
21,EQRTSRWNTVLRAVKAKTHHLEP,3.23
22,EQRSSRWNTVLRAVKAKTHHLEP,3.05
23,EQRASRWNTVLRAVKAKTHHLEP,2.5
24,EQRISRWNTVLRAVKAKTHHLEP,2.94
25,EQRFSRWNTVLRAVKAKTHHLEP,3.17
26,EQRMSRWNTVLRAVKAKTHHLEP,2.94

row,Variant,protein stability index
1,CQRNSRWNTVLRAVKAKTHHLEP,2.79
2,HQRNSRWNTVLRAVKAKTHHLEP,2.91
3,RQRNSRWNTVLRAVKAKTHHLEP,3.15
4,PQRNSRWNTVLRAVKAKTHHLEP,2.74
5,YQRNSRWNTVLRAVKAKTHHLEP,3.33
6,IQRNSRWNTVLRAVKAKTHHLEP,2.79
7,VQRNSRWNTVLRAVKAKTHHLEP,2.65
8,TQRNSRWNTVLRAVKAKTHHLEP,2.27
9,LQRNSRWNTVLRAVKAKTHHLEP,2.87
10,MQRNSRWNTVLRAVKAKTHHLEP,2.95
11,GQRNSRWNTVLRAVKAKTHHLEP,2.9
12,WQRNSRWNTVLRAVKAKTHHLEP,2.94
13,AQRNSRWNTVLRAVKAKTHHLEP,2.66
14,NQRNSRWNTVLRAVKAKTHHLEP,2.91
15,QQRNSRWNTVLRAVKAKTHHLEP,3.13
16,SQRNSRWNTVLRAVKAKTHHLEP,2.4
17,KQRNSRWNTVLRAVKAKTHHLEP,2.12
18,FQRNSRWNTVLRAVKAKTHHLEP,2.52
19,EQENSRWNTVLRAVKAKTHHLEP,3.33
20,EQNNSRWNTVLRAVKAKTHHLEP,3.07
21,EQTNSRWNTVLRAVKAKTHHLEP,2.9
22,EQHNSRWNTVLRAVKAKTHHLEP,2.99
23,EQANSRWNTVLRAVKAKTHHLEP,3.25
24,EQLNSRWNTVLRAVKAKTHHLEP,3.23
25,EQGNSRWNTVLRAVKAKTHHLEP,3.58
26,EQQNSRWNTVLRAVKAKTHHLEP,2.71

row,Variant,protein stability index
1,EQSNSRWNTVLRAVKAKTHHLEP,3.47
2,EQCNSRWNTVLRAVKAKTHHLEP,3.3
3,EQVNSRWNTVLRAVKAKTHHLEP,2.99
4,EQPNSRWNTVLRAVKAKTHHLEP,3.25
5,EQMNSRWNTVLRAVKAKTHHLEP,3.25
6,EQFNSRWNTVLRAVKAKTHHLEP,3.35
7,EQYNSRWNTVLRAVKAKTHHLEP,3.7
8,EQWNSRWNTVLRAVKAKTHHLEP,2.7
9,EQKNSRWNTVLRAVKAKTHHLEP,2.79
10,EQINSRWNTVLRAVKAKTHHLEP,3.09
11,EQDNSRWNTVLRAVKAKTHHLEP,3.97
12,EQRNSRWNIVLRAVKAKTHHLEP,3.02
13,EQRNSRWNWVLRAVKAKTHHLEP,2.3
14,EQRNSRWNNVLRAVKAKTHHLEP,3.3
15,EQRNSRWNAVLRAVKAKTHHLEP,3.31
16,EQRNSRWNQVLRAVKAKTHHLEP,3
17,EQRNSRWNDVLRAVKAKTHHLEP,2.29
18,EQRNSRWNHVLRAVKAKTHHLEP,2.38
19,EQRNSRWNMVLRAVKAKTHHLEP,3.04
20,EQRNSRWNYVLRAVKAKTHHLEP,2.23
21,EQRNSRWNCVLRAVKAKTHHLEP,3
22,EQRNSRWNFVLRAVKAKTHHLEP,1.99
23,EQRNSRWNSVLRAVKAKTHHLEP,3.31
24,EQRNSRWNGVLRAVKAKTHHLEP,3.94
25,EQRNSRWNLVLRAVKAKTHHLEP,2.91
26,EQRNSRWNEVLRAVKAKTHHLEP,2.38

row,Variant,protein stability index
1,EQRNSRWNVVLRAVKAKTHHLEP,2.74
2,EQRNSRWNPVLRAVKAKTHHLEP,4.6
3,EQRNSRWNRVLRAVKAKTHHLEP,4.1
4,EQRNSIWNTVLRAVKAKTHHLEP,3.4
5,EQRNSFWNTVLRAVKAKTHHLEP,3.03
6,EQRNSPWNTVLRAVKAKTHHLEP,2.51
7,EQRNSMWNTVLRAVKAKTHHLEP,2.72
8,EQRNSWWNTVLRAVKAKTHHLEP,2.07
9,EQRNSEWNTVLRAVKAKTHHLEP,3.39
10,EQRNSLWNTVLRAVKAKTHHLEP,2.97
11,EQRNSQWNTVLRAVKAKTHHLEP,2.62
12,EQRNSGWNTVLRAVKAKTHHLEP,3.11
13,EQRNSVWNTVLRAVKAKTHHLEP,3.23
14,EQRNSYWNTVLRAVKAKTHHLEP,2.94
15,EQRNSSWNTVLRAVKAKTHHLEP,2.4
16,EQRNSDWNTVLRAVKAKTHHLEP,2.7
17,EQRNSKWNTVLRAVKAKTHHLEP,2.67
18,EQRNSCWNTVLRAVKAKTHHLEP,2.45
19,EQRNSTWNTVLRAVKAKTHHLEP,2.48
20,EQRNSAWNTVLRAVKAKTHHLEP,2.85
21,EQRNSNWNTVLRAVKAKTHHLEP,2.67
22,EQRNSHWNTVLRAVKAKTHHLEP,3.45
